Laboratory results: PMC6923396

Tests used:
[1] = biological target: p62-UBA K420Q (for NMR) (mouse) (UniProt Q64337); assay: NMR dilution series (1H-15N HSQC peak volumes of monomer and dimer); 15N-labeled p62-UBA diluted from 500 to 20 µM; 298 K, pH 6.0, 20 mM sodium acetate, 100 mM NaCl; dimer to monomers
[2] = biological target: p62-UBA K435Q (for NMR) (mouse) (UniProt Q64337); assay: as above

Row | Kd [1] [µM] | Kd [2] [µM] | Substance
1 | 41.2 |  | p62-UBA K420Q (for NMR) (from UniProt Q64337-1 391-436) (domain or fragment)
2 |  | 15.5 | p62-UBA K435Q (for NMR) (from UniProt Q64337-1 391-437) (domain or fragment)
